Our source for the protein stability index values is the supplement of paper PMC10567573.

B1: FAM164C (parent)
chain: YPHCTGISQQDPESDSQGQGNGLF
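Also: lentivirally expressed fusions sorted by FACS into six bins by GFP to DsRed ratio, PSI derived from sequencing read proportions per bin multiplied by bin number.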

The variants in the series derive from B1. The series is described as follows: protein stability index of a GFP-peptide fusion (GPS, HEK-293T) (PSI 1-6); higher = more stable. As to conditions: c terminus: a fixed tail appended.
In the case of YPHCTGISQQPPESDSQGQGNGLF, the protein stability index is 3.85.

For the variant YPHCTGISQQNPESDSQGQGNGLF, the protein stability index is 3.62.

With YPHCTGISQQLPESDSQGQGNGLF, the protein stability index was 3.37.

On to YPHCTGISQQKPESDSQGQGNGLF, for which the protein stability index worked out at 3.85.

Consider YPHCTGISQQWPESDSQGQGNGLF, for which the protein stability index amounted to 2.32.

On to YPHCTGISQQTPESDSQGQGNGLF, for which the protein stability index is 3.17.

YPHCTGISQQYPESDSQGQGNGLF: the protein stability index amounted to 2.94.

For the variant YPHCTGISQQCPESDSQGQGNGLF, the protein stability index worked out at 3.15.

With YPHCTGISQQAPESDSQGQGNGLF, the protein stability index came out at 3.66.

With YPHCTGISQQVPESDSQGQGNGLF, the protein stability index came to 3.5.

Consider YPHCTGISQQHPESDSQGQGNGLF, for which the protein stability index was determined as 3.12.

In the case of YPHCTGISQQSPESDSQGQGNGLF, the protein stability index worked out at 3.58.

With YPHCTGISQQMPESDSQGQGNGLF, the protein stability index came to 3.41.

As to YPHCTGISQQEPESDSQGQGNGLF, the protein stability index amounted to 4.2.

YPHCTGISQQRPESDSQGQGNGLF: the protein stability index worked out at 3.29.

Consider YPHCTGISQQQPESDSQGQGNGLF, for which the protein stability index amounted to 3.73.

As for YPHCTGISQQIPESDSQGQGNGLF, the protein stability index turned out to be 3.1.

As for YPHCTGISQQGPESDSQGQGNGLF, the protein stability index was found to be 3.18.

Turning to YPHCTGISQQFPESDSQGQGNGLF, the protein stability index was 2.96.

For YPHCTGISQQDPETDSQGQGNGLF, the protein stability index was determined as 3.71.

As to YPHCTGISQQDPEFDSQGQGNGLF, the protein stability index amounted to 2.73.

YPHCTGISQQDPEEDSQGQGNGLF: the protein stability index was determined as 3.84.

Regarding YPHCTGISQQDPEHDSQGQGNGLF, the protein stability index came out at 3.73.

Regarding YPHCTGISQQDPEDDSQGQGNGLF, the protein stability index was found to be 4.2.

For YPHCTGISQQDPECDSQGQGNGLF, the protein stability index worked out at 3.54.

Take YPHCTGISQQDPEGDSQGQGNGLF: the protein stability index was determined as 3.74.

For the variant YPHCTGISQQDPERDSQGQGNGLF, the protein stability index was found to be 3.79.

On to YPHCTGISQQDPEKDSQGQGNGLF, for which the protein stability index was determined as 4.23.

As for YPHCTGISQQDPEWDSQGQGNGLF, the protein stability index is 3.13.

For YPHCTGISQQDPEPDSQGQGNGLF, the protein stability index is 4.28.

As to YPHCTGISQQDPEIDSQGQGNGLF, the protein stability index is 3.25.

Take YPHCTGISQQDPEMDSQGQGNGLF: the protein stability index came to 3.4.

Turning to YPHCTGISQQDPEVDSQGQGNGLF, the protein stability index stood at 4.3.

On to YPHCTGISQQDPEADSQGQGNGLF, for which the protein stability index was determined as 3.86.

Turning to YPHCTGISQQDPELDSQGQGNGLF, the protein stability index came to 3.77.

YPHCTGISQQDPEYDSQGQGNGLF: the protein stability index amounted to 3.27.

For the variant YPHCTGISQQDPENDSQGQGNGLF, the protein stability index was 3.89.

On to YPHCTGISQQDPEQDSQGQGNGLF, for which the protein stability index stood at 3.93.

Take YPHCTGISQQDPESPSQGQGNGLF: the protein stability index came out at 3.46.

YPHCTGISQQDPESNSQGQGNGLF: the protein stability index amounted to 3.84.

YPHCTGISQQDPESWSQGQGNGLF: the protein stability index is 2.63.

In the case of YPHCTGISQQDPESLSQGQGNGLF, the protein stability index worked out at 2.8.

Turning to YPHCTGISQQDPESQSQGQGNGLF, the protein stability index amounted to 3.44.

YPHCTGISQQDPESASQGQGNGLF: the protein stability index is 3.53.

In the case of YPHCTGISQQDPESESQGQGNGLF, the protein stability index was found to be 4.07.

Regarding YPHCTGISQQDPESYSQGQGNGLF, the protein stability index is 3.23.

Regarding YPHCTGISQQDPESGSQGQGNGLF, the protein stability index worked out at 2.94.

As for YPHCTGISQQDPESFSQGQGNGLF, the protein stability index is 2.94.

With YPHCTGISQQDPESKSQGQGNGLF, the protein stability index was found to be 3.64.

For YPHCTGISQQDPESCSQGQGNGLF, the protein stability index was found to be 2.79.

For YPHCTGISQQDPESVSQGQGNGLF, the protein stability index was determined as 3.51.

Take YPHCTGISQQDPESISQGQGNGLF: the protein stability index was 2.9.

For YPHCTGISQQDPESSSQGQGNGLF, the protein stability index is 3.73.

Turning to YPHCTGISQQDPESHSQGQGNGLF, the protein stability index amounted to 3.66.

As to YPHCTGISQQDPESMSQGQGNGLF, the protein stability index worked out at 2.9.

YPHCTGISQQDPESRSQGQGNGLF: the protein stability index was found to be 3.54.

On to YPHCTGISQQDPESTSQGQGNGLF, for which the protein stability index stood at 2.95.

As for YPHCTGISQQDPESDSQGQENGLF, the protein stability index was 4.33.

Regarding YPHCTGISQQDPESDSQGQDNGLF, the protein stability index turned out to be 4.39.

As to YPHCTGISQQDPESDSQGQANGLF, the protein stability index was found to be 3.12.

For the variant YPHCTGISQQDPESDSQGQCNGLF, the protein stability index is 3.57.

In the case of YPHCTGISQNDPESDSQGQGNGLF, the protein stability index was found to be 4.05.

As to YPHCTGISQHDPESDSQGQGNGLF, the protein stability index was 3.65.

With YPHCTGISQSDPESDSQGQGNGLF, the protein stability index was 3.48.

Take YPHCTGISQKDPESDSQGQGNGLF: the protein stability index is 4.

For YPHCTGISQRDPESDSQGQGNGLF, the protein stability index was determined as 3.54.

YPHCTGISQLDPESDSQGQGNGLF: the protein stability index was 2.96.

In the case of YPHCTGISQYDPESDSQGQGNGLF, the protein stability index amounted to 3.07.

For YPHCTGISQWDPESDSQGQGNGLF, the protein stability index was determined as 2.87.

For the variant YPHCTGISQPDPESDSQGQGNGLF, the protein stability index came out at 3.78.

Consider YPHCTGISQMDPESDSQGQGNGLF, for which the protein stability index was determined as 3.84.

As for YPHCTGISQIDPESDSQGQGNGLF, the protein stability index was determined as 3.64.

In the case of YPHCTGISQTDPESDSQGQGNGLF, the protein stability index amounted to 3.64.

In the case of YPHCTGISQVDPESDSQGQGNGLF, the protein stability index stood at 3.74.

Turning to YPHCTGISQQDPYSDSQGQGNGLF, the protein stability index amounted to 2.97.

With YPHCTGISQQDPLSDSQGQGNGLF, the protein stability index was 2.81.

Take YPHCTGISQQDPQSDSQGQGNGLF: the protein stability index stood at 3.31.

YPHCTGISQQDPCSDSQGQGNGLF: the protein stability index is 3.34.

Consider YPHCTGISQQDPISDSQGQGNGLF, for which the protein stability index came to 3.21.

With YPHCTGISQQDPTSDSQGQGNGLF, the protein stability index was 3.15.

Regarding YPHCTGISQQDPRSDSQGQGNGLF, the protein stability index was found to be 2.93.

For YPHCTGISQQDPNSDSQGQGNGLF, the protein stability index was found to be 3.23.

Consider YPHCTGISQQDPKSDSQGQGNGLF, for which the protein stability index stood at 3.28.

As to YPHCTGISQQDPHSDSQGQGNGLF, the protein stability index came out at 3.4.

As to YPHCTGISQQDPWSDSQGQGNGLF, the protein stability index is 1.9.

Turning to YPHCTGISQQDPVSDSQGQGNGLF, the protein stability index was found to be 3.66.

As for YPHCTGISQQDPFSDSQGQGNGLF, the protein stability index was 2.44.

Turning to YPHCTGISQQDPGSDSQGQGNGLF, the protein stability index was 3.38.

As to YPHCTGISQQDPDSDSQGQGNGLF, the protein stability index came out at 3.87.

Consider YPHCTGISQQDPASDSQGQGNGLF, for which the protein stability index came to 3.46.

For YPHCTGISQQDPPSDSQGQGNGLF, the protein stability index was 3.51.

For the variant YPHCTGISQQDPMSDSQGQGNGLF, the protein stability index turned out to be 3.21.

With YPHCTGISQQDPSSDSQGQGNGLF, the protein stability index was 3.08.

With YPHCTGISQQDPESDMQGQGNGLF, the protein stability index turned out to be 3.62.
